Laboratory results as given in PMC4004541, “PEG-Like Nanoprobes: Multimodal, Pharmacokinetically and Optically Tunable Nanomaterials” (PLoS ONE, 2014).

Assays:
[1] = Probe size (volume) by FPLC calibrated with globular protein standards; assay type: physicochemical; settings: for Volume FPLC, globular protein equivalent molecular volume: Superdex 200 10/300GL, 0.05 M sodium phosphate, 0.1 M NaCl (0.1% Tween, pH 7.2), 0.8 ml/min, calibrated with globular protein standards; for Volume FPLC Dia. (diameter): globular protein equivalent volume from FPLC converted to spherical diameter by formula (ref 15)
From the text: FPLC chromatograms are shown for PN’s bearing the IR-783 fluorochrome with PEG’s ranging from 2 to 40 kDa ( Figure 2A ). FPLC was calibrated with globular protein standards, and globular protein equivalent molecular volumes (in kDa) were obtained ( Table 1 , column 5). Next, these globular protein equivalent molecular volumes were converted to PN diameters in nm using the relationship: [drawing 1] where M is the molecular weight of a globular protein expressed in daltons. PN diameters ranged from 3.0 to 11.7 nm, which means PN’s can be smaller or larger than albumin (MW = 67 kDa; diameter = 5.4 nm, by the formula above). Thus Table 1 column 5 gives the PN volumes obtained from FPLC expressed in two ways: (i) as the molecular weight in kDa of globular proteins with equivalent volumes, permitting size comparison of PN’s to proteins, and, (ii) as spherical diameters (“Dia.”) in nm, permitting size comparisons of a PN to relative to other nanomaterials. We confirmed the sizes obtained with FPLC by measuring the size of PN(783)11.7 by dynamic light scattering (11.7 nm).
The mass spec of low molecular weight (MW) materials were obtained by MS-ESI Micromass (Waters) and high MW molecules were determined through MALDI-TOF analyses at the Tufts University Core Facility. RP-HPLC (Varian ProStar detector and delivery modules) employed an eluant A (0.1% TFA/water) and eluant B (0.1% TFA and 9.9% water in acetonitrile). Probe size (volume) was determined by FPLC using an ÄKTA Purifier 10 and SuperdexTM 200 10/300GL column (GE Healthcare) with a running buffer of 0.05 M sodium phosphate, 0.1 M NaCl (0.1% Tween, pH 7.2) and flow rate of 0.8 ml/min. Standards (GE Healthcare) were Ferritin, Ribonuclease A, Carbonic Anhydrase, and Conalbumin and Blue Dextran 2000. To obtain probe volumes, Mr (apparent molecular weight based on size exclusion retention) was plotted versus Kav. [drawing 7] , Vt = total volume, Ve = elution volume, Vo = void volume.
PN and peptide characterization: The mass spec of low molecular weights (MW) were obtained by MS-ESI Micromass (Waters) and high MW molecules were determined through MALDI-TOF analyses at the Tufts University Core Facility. RP-HPLC (Varian ProStar detector and delivery modules) employed an eluant A (0.1% TFA /water) and eluant B (0.1% TFA and 9.9% water in acetonitrile). […] Standards (GE Healthcare) were Ferritin, Ribonuclease A, Carbonic Anhydrase, and Conalbumin and Blue Dextran 2000. To obtain probe volumes, Mr (apparent molecular weight based on size exclusion retention) was plotted versus Kav. [picture] , Vt = total volume, Ve = elution volume, Vo = void volume.

[2] = Quantum yield of fluorochrome-bearing peptides and PN's; assay type: physicochemical; settings: means±1 S.D.
From the text: (The p values showing significances are in Figure S2 in File S1). […] PEG attachment increased quantum yields in all cases, but as discussed below the magnitude of PEG generated improvement varied with the fluorochrome chosen. A mechanism for the PEG improvement of quantum yield is fluorochrome shielding, or the blocking of fluorochrome-fluorochrome interactions that result in quenching.
However, the magnitude of these benefits varied with the fluorochrome selected. […] Previous studies indicated PEGylated, fluorochrome-bearing peptides have absorption spectra in PBS similar to their unstacked absorption spectra in methanol. […] It appears that longer wavelength fluorochromes have stronger fluorochrome/fluorochrome stacking interactions, which result in more quenching, which is blocked by PEG and which gives rise to larger increases in quantum yield.

HT-29 cells = assay: Non-specific binding (NSB) to HT-29 cells by FACS; assay type: cell-based, human; settings: 100 μL of nanoprobes (2 μM) added to 100 μl 2% FBS/DPBS, 30 min at 37 °C, means±1 S.D.
From the text: We next examined the non-specific binding (NSB) of PN’s to HT-29 cells based on the assumption that NSB minimization will correlate with a desirable minimization of post-IV injection retention. As noted above, after diagnostic drugs generate their added information, retention can only increase the risks of delayed toxicity. The attachment of PEG decreased the non-specific binding (NSB) to HT-29 cells, scored as the percent of cells above the cutoff for unstained cells seen with FACS ( Table 1 , column 7).
PN and peptide binding to cells (effect of PEGylation on NSB): HT-29, a human colon carcinoma cell line, was from the American Tissue Culture Collection and maintained according to their instructions. Cells were seeded on 24-well plates at 5X10^5 cells/well in culture medium (RPMI 1640 with 10% FBS) the day before the assay. The day of assay, medium was removed, wells rinsed twice with DPBS (+Ca, +Mg), and 100 μl of 2% FBS / DPBS (+Ca, +Mg) added. 100 μL of Nanoprobes (2 μM) in DPBS (+Ca, +Mg) was added to cells and incubated for 30min at 37 °C. (Probe concentrations were determined spectrophotometrically (783 nm, extinction coefficient of 314 471 cm^-1 M^-1 for IR-783; 497 nm, extinction coefficient of 68 000 cm^-1 M^-1 for Fluorescein; 545 nm, extinction coefficient of 150 000 cm^-1 M^-1 for Cy3). Cells were detached by Trypsin/EDTA and assayed for fluorescence by FACS (BD 7 laser LSR2 for nanoprobes with IR-783; BD 3 laser LSR2 for nanoprobes with Fluorescein or Cy3).
Figure S4: Effect of PEGylation on non-specific binding to cells by single channel FACS. […] Arrows indicates the cutoff for unstained cells.

[3] = Circulating form of PN's: FPLC of sera of injected mice; assay type: in vivo; settings: 20 nmoles IV tail vein, nude mice, FPLC at 783 nm
Description: To see if the variable PN size could be translated into tunable pharmacokinetics, it was essential to first establish that PN’s circulated at PEG-determined, pre-injection dimensions. Mice were injected with PN’s and FPLC chromatograms of serum samples, taken at various times post injection ( Figures 2D, 2E and 2F ), compared with pre-injection PN samples. By using PN’s absorbing at 783 nm, chromatograms from the sera of injected mice reflect this PN, since there are no compounds in serum that absorb at this wavelength. […] Similarly, peaks for PN(783)6.1 ( Figure 2E ) and PN(783)4.3 ( Figure 2F ) where identical for pre-injection samples and for nanoprobes in the sera of injected mice. Thus, molecular weight of the PEG chosen determines PN dimensions in vitro and those dimensions are maintained after injection.
At the indicated time, 50 µl of blood was collected with microhematocrit capillary tube (Fisher Scientific) from the tail, and transferred to Eppendorf microcentrifuge tube with anticoagulant (EDTA) coating (Fisher Scientific). Tubes were centrifuged (5000 rpm for 5 min), and the supernatant was injected to the FPLC, a ÄKTA Purifier 10 with SuperdexTM 200 10/300GL column.
At the indicated time, 50 μl of blood was collected with microhematocrit capillary tube (Fisher Scientific) from the tail, and transferred to Eppendorf microcentrifuge tube with anticoagulant (EDTA) coating (Fisher Scientific). Tubes were centrifuged (5000 rpm for 5 min), and the supernatant was injected to the FPLC, a ÄKTA Purifier 10 with SuperdexTM 200 10/300GL column.

[4] = Elimination by whole animal surface fluorescence imaging; assay type: in vivo; settings: mice, after injection, n = 6
Description: Surface fluorescence images for representative animals are shown and total surface fluorescence is quantified in bar graphs to the right of the image. […] The pharmacokinetics and biodistributions of these PN’s is further analyzed below.
Figure 3 Role PEG in determining elimination by surface fluorescence imaging. A) Animals were injected with unPEGylated peptide and imaged at the times indicated. Bar graph gives whole animal surface fluorescence determined as means and standard deviations, n = 6.
(§1) A Kodak FX multispectral imaging system was used (Carestream Molecular Imaging, Rochester, NY). Excitation at multiple wavelengths (620, 650, 690, 710, 720, 730, 750 and 760 nm) with the emission at 830 nm was setup for IR-783 spectrum; Excitation at multiple wavelengths (420, 440, 460, 480, 510, 520, 530, and 540 nm) with the emission at 600 nm was setup for Cy3 spectrum; Excitation at multiple wavelengths (450, 470, 510, 520, 530, 540, 550, 570, and 590 nm) with the emission at 700 nm was setup for mCherry; with manufacturer’s software to separate (unmix) the IR-783 spectrum, Cy3 spectrum, or mCherry spectrum from skin autofluorescence and chlorophyll fluorescence from food. X-ray images were taken after fluorescence images. […]
as §1, with “Whole animal surface fluorescence imaging: All animal experiments in this work were approved by the Institutional Review Committee of the Massachusetts General Hospital. […]” for “A Kodak FX multispectral imaging system was used (Carestream Molecular Imaging, Rochester, NY).”

Substance | Volume FPLC, globular protein equivalent molecular volume [1] | Volume FPLC Dia. (diameter) [1] | Quant. Yield [2] | Cell NSB: percent of HT-29 cells above the cutoff for unstained cells (HT-29 cells) | Circulating size: FPLC peaks of serum samples after injection versus pre-injection sample [3] | Elimination seen by whole animal surface fluorescence [4]
(DOTA)Lys(PEG 2 kDa)-Cys(IR-783) [PN(783)3.0, PEG-like Nanoprobe: 2 kDa PEG, IR-783 fluorochrome, DOTA peptide] | 11.2 kDa | 3.0 nm | 0.13±0.02 | 50±1% | – | –
(DOTA)Lys(PEG 5 kDa)-Cys(Cy3) [PN(545)4.3, PEG-like Nanoprobe: 5 kDa PEG, Cy3 fluorochrome, DOTA peptide] | 35 kDa | 4.3 nm | 0.59±0.09 | 31±1% | – | –
(DOTA)Lys(PEG 5 kDa)-Cys(Fl) [PN(497)4.3, PEG-like Nanoprobe: 5 kDa PEG, fluorescein, DOTA peptide] | 35 kDa | 4.3 nm | 0.59±0.06 | 0.2±0.1% | – | –
(DOTA)Lys(PEG 10 kDa)-Cys(IR-783) [PN(783)6.1, PEG-like Nanoprobe: 10 kDa PEG, IR-783 fluorochrome, DOTA peptide] | 100.7 kDa | 6.1 nm | 0.16±0.03 | 14±1% | identical | –
(DOTA)Lys(PEG 20 kDa)-Cys(IR 783) [PN(783)8.4, PEG-like Nanoprobe: 20 kDa PEG, IR-783 fluorochrome, DOTA peptide] | 262.5 kDa | 8.4 nm | 0.16±0.04 | 14±1% | – | –
(DOTA)Lys(PEG 30 kDa)-Cys(Cy3) [PN(545)10.0, PEG-like Nanoprobe: 30 kDa PEG, Cy3 fluorochrome, DOTA peptide] | 435 kDa | 10.0 nm | 0.61±0.10 | 15±1% | – | –
(DOTA)Lys-Cys(Cy3) [unPEGylated DOTA peptide with Cy3 fluorochrome on the cysteine side chain] | – | – | 0.32±0.07 | 98±1% | – | –
(DOTA)Lys-Cys(Fl) [unPEGylated DOTA peptide with fluorescein on the cysteine side chain] | – | – | 0.50±0.11 | 0.4±0.1% | – | –
(DOTA)Lys-Cys(IR-783) [unPEGylated DOTA peptide with IR-783 fluorochrome on the cysteine side chain] | – | – | 0.053±0.008 | 95±1% | – | slow and incomplete elimination
